Experiments:
human IgG (human) [1] = assay: QCM; pH 7.4
mouse IgG (mouse) [2] = assay: QCM; pH 7.4
human IgG (human) [3] = assay: QCM; pH 6
mouse IgG (mouse) [4] = assay: QCM; pH 6
mouse IgG Fc (mouse) [5] = assay: QCM; pH 7.4
human IgG Fc (human) [6] = assay: QCM; pH 7.4
mouse IgG Fc (mouse) [7] = assay: QCM; pH 6
human IgG Fc (human) [8] = assay: QCM; pH 6

| Substance | Kd (human IgG (human) [1]) | Kd (mouse IgG (mouse) [2]) | Kd (human IgG (human) [3]) | Kd (mouse IgG (mouse) [4]) | Kd (mouse IgG Fc (mouse) [5]) | Kd (human IgG Fc (human) [6]) | Kd (mouse IgG Fc (mouse) [7]) | Kd (human IgG Fc (human) [8]) |
| --- | --- | --- | --- | --- | --- | --- | --- | --- |
| SpAB (from UniProt P38507 212-269) | 9 nM | 380 nM | 350 nM | 15000 nM |  |  |  |  |
| SpAD (from UniProt P38507 93-153) | 22 nM | 56 nM | 148 nM | 773 nM | 54 nM | 14 nM | 980 nM | 30 nM |

— patent publication US20140220017A1
